Data: paper PMC5505151, “A proteomic analysis of LRRK2 binding partners reveals interactions with multiple signaling components of the WNT/PCP pathway” (Molecular Neurodegeneration, 2017)

Biological target: LRRK2 (wild type, transiently overexpressed; tagged construct not told for the experiment) (UniProt Q5S007 1-2527)
Test: cell-based or functional assay

Chain of LRRK2 (wild type, transiently overexpressed; tagged construct not told for the experiment) (Q5S007 whole entry): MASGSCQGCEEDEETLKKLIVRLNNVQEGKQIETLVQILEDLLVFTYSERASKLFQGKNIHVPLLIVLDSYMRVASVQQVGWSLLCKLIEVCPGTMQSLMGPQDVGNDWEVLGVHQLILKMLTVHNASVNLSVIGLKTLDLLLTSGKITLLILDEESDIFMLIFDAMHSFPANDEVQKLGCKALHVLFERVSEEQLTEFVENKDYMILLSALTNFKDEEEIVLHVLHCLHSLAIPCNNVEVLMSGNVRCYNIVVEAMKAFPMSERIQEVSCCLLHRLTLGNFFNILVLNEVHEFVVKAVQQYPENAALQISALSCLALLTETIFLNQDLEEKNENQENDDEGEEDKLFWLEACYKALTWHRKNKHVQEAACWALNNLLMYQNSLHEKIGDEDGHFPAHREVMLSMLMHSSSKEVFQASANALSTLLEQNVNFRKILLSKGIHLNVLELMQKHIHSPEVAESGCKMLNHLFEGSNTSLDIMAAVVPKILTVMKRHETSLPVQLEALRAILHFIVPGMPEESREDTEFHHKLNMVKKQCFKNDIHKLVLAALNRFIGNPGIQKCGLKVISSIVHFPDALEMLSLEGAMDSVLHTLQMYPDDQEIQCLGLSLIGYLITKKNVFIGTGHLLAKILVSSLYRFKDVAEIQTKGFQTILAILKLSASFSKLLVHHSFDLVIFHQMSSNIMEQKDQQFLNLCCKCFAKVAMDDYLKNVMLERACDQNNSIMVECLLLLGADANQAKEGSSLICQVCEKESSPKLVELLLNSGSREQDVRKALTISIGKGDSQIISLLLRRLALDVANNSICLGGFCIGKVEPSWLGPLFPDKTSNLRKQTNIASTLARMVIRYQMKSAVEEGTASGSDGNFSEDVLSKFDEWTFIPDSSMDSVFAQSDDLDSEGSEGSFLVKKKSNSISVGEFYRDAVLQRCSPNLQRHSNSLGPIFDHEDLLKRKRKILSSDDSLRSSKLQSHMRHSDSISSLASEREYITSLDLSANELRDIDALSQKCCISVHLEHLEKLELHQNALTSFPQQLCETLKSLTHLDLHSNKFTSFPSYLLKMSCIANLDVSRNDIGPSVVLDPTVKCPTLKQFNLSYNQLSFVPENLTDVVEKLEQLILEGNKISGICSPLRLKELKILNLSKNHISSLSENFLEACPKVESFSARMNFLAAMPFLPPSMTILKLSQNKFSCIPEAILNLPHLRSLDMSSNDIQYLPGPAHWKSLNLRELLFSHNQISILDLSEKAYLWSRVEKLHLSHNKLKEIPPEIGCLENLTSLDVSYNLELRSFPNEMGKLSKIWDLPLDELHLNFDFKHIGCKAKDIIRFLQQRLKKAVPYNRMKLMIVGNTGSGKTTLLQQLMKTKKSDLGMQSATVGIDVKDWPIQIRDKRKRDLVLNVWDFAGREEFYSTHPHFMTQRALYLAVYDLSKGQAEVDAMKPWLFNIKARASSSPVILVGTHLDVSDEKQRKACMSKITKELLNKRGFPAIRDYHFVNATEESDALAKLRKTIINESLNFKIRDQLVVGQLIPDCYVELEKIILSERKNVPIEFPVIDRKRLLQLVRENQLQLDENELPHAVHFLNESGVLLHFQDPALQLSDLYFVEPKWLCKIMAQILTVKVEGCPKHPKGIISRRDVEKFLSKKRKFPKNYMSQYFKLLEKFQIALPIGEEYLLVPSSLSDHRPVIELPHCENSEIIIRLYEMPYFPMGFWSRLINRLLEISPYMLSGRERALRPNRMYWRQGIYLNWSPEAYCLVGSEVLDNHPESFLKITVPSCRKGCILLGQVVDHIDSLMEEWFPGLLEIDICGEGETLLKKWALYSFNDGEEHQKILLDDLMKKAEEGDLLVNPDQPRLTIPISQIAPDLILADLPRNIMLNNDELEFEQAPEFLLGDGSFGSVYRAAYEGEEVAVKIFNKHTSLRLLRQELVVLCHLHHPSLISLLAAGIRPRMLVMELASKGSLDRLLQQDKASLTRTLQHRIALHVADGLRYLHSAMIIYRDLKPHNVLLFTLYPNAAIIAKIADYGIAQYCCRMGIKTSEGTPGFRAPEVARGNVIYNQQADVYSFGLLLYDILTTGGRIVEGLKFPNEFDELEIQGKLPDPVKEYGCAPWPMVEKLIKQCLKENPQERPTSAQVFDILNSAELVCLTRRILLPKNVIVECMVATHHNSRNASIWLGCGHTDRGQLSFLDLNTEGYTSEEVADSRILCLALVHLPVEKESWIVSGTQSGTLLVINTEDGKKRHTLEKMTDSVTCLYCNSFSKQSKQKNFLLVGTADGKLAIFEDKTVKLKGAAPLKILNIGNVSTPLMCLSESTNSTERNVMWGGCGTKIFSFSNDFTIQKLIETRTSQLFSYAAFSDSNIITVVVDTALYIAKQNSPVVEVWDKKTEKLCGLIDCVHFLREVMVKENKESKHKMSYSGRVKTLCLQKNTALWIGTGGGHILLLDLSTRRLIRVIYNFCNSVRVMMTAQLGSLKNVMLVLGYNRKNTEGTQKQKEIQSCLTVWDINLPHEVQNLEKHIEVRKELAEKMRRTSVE

B1: Prickle1-ECFP (natural protein, UniProt Q3U5C7 1-832, looked up)
chain: MPLEMEPKMSKLVFGCQRSSTSDDDSGCALEEYAWVPPGLRPEQIQLYFACLPEEKVPYVNSPGEKHRIKQLLYQLPPHDNEVRYCQSLSEEEKKELQVFSAQRKKEALGRGTIKLLSRAVMHAVCEQCGLQMNGGEVAVFASRAGPGVCWHPSCFVCFTCNELLVDLIYFYQDGKIHCGRHHAELLKPRCSACDEIIFADECTEAEGRHWHMKHFCCLECETVLGGQRYIMKDGRPFCCGCFESLYAEYCETCGEHIGVDHAQMTYDGQHWHATEACFSCAQCKASLLGCPFLPKQGQIYCSKTCSLGEDIHASDSSDSAFQSARSRDSRRSVRMGRSSRSADQCRQSLLLSPALNYKFPGLSGNADDTLSRKLDDVSLASRQGAGFANEEFWKARVEQEASEDPEEWAEHEDYMTQLLLKFGDKNLFQQQSSEVDPRASEHWIPDNMVTNKPEVKPNHQGLASKKYQSDMYWAQSQDGLGDSAYGSHPGPASSRRLQELDLDHGAAGYTHDQSQWYEDSLECLSDLKPEQSIRDSMDSLALSNITGASVDGESKPRPSLYSLQNFEEIEAEDCEKMSNMGTLNSSMLHRSAESLQSLNSGLCPEKILPEEKPAHLPVLRRSKSQSRPQQVKFSDDVIDNGSYDIEIRQPPMSERTRRRAYHFEERGSRPHHHRHRRSRKSRSDNALNLVTERKYSAKDRLRLYTPDNYEKFIQNKSARELQAYMQNANLYSQYAHATSDYALQNPGMNRFLGLCGEDDDSWCSSSTSSSDSEEEGYFLGQPIPQPRPQRFTYYTDDLSSPASALPTPQFTQRTTKSKKKKGHKGKNCIIS
Question: For B1, which “TOPFlash (WNT/β-catenin reporter) in HEK293T cells expressing DVL2, LRRK2 and PRICKLE1, fold of control (DVL2 with LRRK2 without PRICKLE1: ~130 fold)” value is on record?
Answer: ~80 fold
